IC50 (read off the curve), IC50 (nM), direct growth inhibition of DoHH2 cells, 96 h, ATP detection and IC50 (nM), direct growth inhibition of SU-DHL-6 cells, 96 h, ATP detection data for one substance are collected here from patent US20140154252A1.

Assay [1] has as its target CD20 (human) (UniProt P11836). In words: competition flow cytometry on Ramos B-cells; competitor PE anti-CD20 antibody [upper graph (Detection of PE-CD20 mAb]. Background: In flow cytometry, cells or beads pass a laser one at a time.
In assay [2] the target is T1, CD37 (human) (UniProt P11049).
T1 sequence (looked up): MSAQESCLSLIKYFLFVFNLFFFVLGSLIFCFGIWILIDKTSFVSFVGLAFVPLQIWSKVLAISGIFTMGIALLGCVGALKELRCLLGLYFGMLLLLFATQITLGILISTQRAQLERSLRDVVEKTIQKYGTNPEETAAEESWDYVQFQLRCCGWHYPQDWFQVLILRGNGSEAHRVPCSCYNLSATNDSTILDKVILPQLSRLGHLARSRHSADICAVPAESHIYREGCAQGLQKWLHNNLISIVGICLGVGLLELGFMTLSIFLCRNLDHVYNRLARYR
In words: cell-based or functional assay.

The target of assay [3] is CD20 (human) (UniProt P11836). In words: cell-based or functional assay.
Sequence of CD20 (human) (P11836 whole entry): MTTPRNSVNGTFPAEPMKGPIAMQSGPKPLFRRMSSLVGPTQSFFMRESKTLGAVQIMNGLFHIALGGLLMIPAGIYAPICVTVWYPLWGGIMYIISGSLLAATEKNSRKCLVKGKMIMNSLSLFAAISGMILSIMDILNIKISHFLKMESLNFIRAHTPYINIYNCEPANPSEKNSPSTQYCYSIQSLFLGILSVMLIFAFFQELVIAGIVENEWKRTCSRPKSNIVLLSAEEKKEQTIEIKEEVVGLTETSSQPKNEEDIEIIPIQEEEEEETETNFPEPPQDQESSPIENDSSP
The target of assay [4] is T1, CD37 (human). In words: competition flow cytometry on Ramos B-cells; competitor FITC anti-CD37 antibody [lower graph (Detection of FITC-CD37 mAb].

As to “CD20×CD37 bispecific scorpion (015×016) (bispecific antibody)”, the figures for the IC50 (read off the curve) in the assay with CD20 (human) [1] and with CD37 (human) [4] were 5 nM and 2 nM, respectively. Also, the IC50 (nM), direct growth inhibition of DoHH2 cells, 96 h, ATP detection with CD37 (human) [2] and with CD20 (human) [3] was 0.05 nM each time. Further, the IC50 (nM), direct growth inhibition of SU-DHL-6 cells, 96 h, ATP detection with CD37 (human) [2] and with CD20 (human) [3] was 0.05 nM each time.
